Experimental data published in paper PMC6957250 (Experimental and molecular pathology, 2016).
Like-named read-outs stand apart in the source and are kept apart here.

Experiments:
Experiment in all cases: ELISA
[1] = target: recombinant CD32A ectodomain (Homo sapiens (assumed), UniProt P12318)
[2] = target: recombinant CD32B ectodomain (Homo sapiens (assumed), UniProt P31994)
[3] = target: recombinant CD16B ectodomain (Homo sapiens, UniProt O75015)
[4] = target: recombinant CD64A ectodomain (Homo sapiens (assumed), UniProt P12314)
Chain of recombinant CD64A ectodomain (P12314 16-292): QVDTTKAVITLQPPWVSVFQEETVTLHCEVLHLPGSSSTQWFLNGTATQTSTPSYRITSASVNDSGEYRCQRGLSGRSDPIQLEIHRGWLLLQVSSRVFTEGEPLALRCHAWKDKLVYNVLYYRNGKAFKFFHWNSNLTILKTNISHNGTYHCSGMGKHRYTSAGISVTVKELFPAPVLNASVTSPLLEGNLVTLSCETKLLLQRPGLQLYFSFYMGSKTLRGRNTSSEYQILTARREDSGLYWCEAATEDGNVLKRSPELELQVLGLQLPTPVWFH

[5] = target: T1, recombinant CD16A-mFc (CD16A-158V extracellular domain fused to monomeric Fc) (Homo sapiens, allotype 158V, UniProt P08637, strain)
T1 sequence (P08637 17-208, change not shown): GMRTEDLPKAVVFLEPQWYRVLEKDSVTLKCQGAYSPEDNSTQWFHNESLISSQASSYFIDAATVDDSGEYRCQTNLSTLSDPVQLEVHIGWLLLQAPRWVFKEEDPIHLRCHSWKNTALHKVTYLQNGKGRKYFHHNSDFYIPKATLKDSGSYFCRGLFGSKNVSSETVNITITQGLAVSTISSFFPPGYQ

[6] = target: CD16A-158F-mFc (CD16A carrying the 158F isoform, monomeric Fc fusion) (Homo sapiens, allotype 158F, UniProt P08637)
Chain of CD16A-158F-mFc (CD16A carrying the 158F isoform, monomeric Fc fusion) (P08637 17-208): as the sequence (P08637 17-208, change not shown) above

[7] = target: T1, recombinant CD16A-mFc (CD16A-158V …); remark: listed apart in the source

Chain of recombinant CD32A ectodomain (P12318 34-217): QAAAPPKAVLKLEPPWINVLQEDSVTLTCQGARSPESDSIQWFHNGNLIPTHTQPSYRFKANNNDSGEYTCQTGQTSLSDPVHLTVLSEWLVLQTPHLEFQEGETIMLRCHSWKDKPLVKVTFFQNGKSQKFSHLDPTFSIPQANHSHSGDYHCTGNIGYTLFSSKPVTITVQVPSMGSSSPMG
Chain of recombinant CD16B ectodomain (O75015 whole entry, looked up, the tested form may be a part): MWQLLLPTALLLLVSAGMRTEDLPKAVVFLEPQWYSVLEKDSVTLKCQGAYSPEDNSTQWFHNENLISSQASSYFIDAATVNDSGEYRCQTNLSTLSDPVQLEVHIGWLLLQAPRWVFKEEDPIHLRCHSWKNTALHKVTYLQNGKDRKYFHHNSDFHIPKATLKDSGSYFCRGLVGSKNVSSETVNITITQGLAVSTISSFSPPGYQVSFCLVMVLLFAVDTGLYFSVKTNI
Chain of recombinant CD32B ectodomain (P31994 43-217): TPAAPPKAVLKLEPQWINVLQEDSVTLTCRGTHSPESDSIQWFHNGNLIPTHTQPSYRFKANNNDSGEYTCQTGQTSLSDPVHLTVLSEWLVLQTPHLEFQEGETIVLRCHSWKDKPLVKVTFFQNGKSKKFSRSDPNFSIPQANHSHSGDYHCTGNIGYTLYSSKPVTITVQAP

Row | binding result [1] | binding result [2] | binding result [3] | binding result [4] | EC50 [5] | binding result [6] | EC50 [7] | Binder
1 | no binding | no binding | no binding | no binding | 8 nM | binds | – | antibody domain E11 (VHH) VH: EVQLVESGGGLVQPGGSLRLSCAASGFTFSSYGMSWVRQAPGKGLEWIGEVNHSGGSTNYNPSLKGSFVISRDNSKNTLYLQMNSLAEDTAVYYCARVGSFDFWGQGTLVTVSS
2 | no binding | no binding | no binding | no binding | 4 nM | binds | ~60 nM | antibody domain D6 (VHH) VH: EVQLVESGGGLVQPGGSLRLSCAASGFTFSNYGMSWVRQAPGKGLEWIGSIYYSGGSTNYNPSLKGSLVISRDNSKNTLYLQMNSLAEDTATYYCARESIDYWGQGTLVTVSS
